Experimental data as given in the supplement of paper PMC7125110.
± gives the standard error. For some assays here: This sample holds only a part of the variants without activity.

B1: glmS ribozyme (parent)
chain: AUAAAAGCGCCAGAACUACAGAAAUGUAGUUGACGAGGAGGAGGUUUAUCGAAUUUUCGGCGGAUGCCUCCAAA

Tests used:
Conditions in all cases: with glucosamine-6-phosphate
glucosamine-6-phosphate [1] = variants of: B1; assay: kcat; higher = faster cleavage; RNA array
Method in brief: (§1)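 Barcoded glmS ribozyme variants on sequenced MiSeq chips were transcribed in situ by E. coli RNA polymerase and tracked through a hybridised Cy3 probe at 37 °C. Glucosamine-6-phosphate (40 μM to 10 mM) in HEPES/KCl/Mg(OAc)2 buffer was flowed in, and tiles were imaged over ~14 h. Signals were normalised to baseline and to non-cleaving reference variants; per-tile medians were fit to one- or two-exponential decays to give kobs. kcat and KM came from weighted Michaelis–Menten fits across concentrations.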

glucosamine-6-phosphate [2] = variants of: B1; assay: self-cleavage kobs at 40 uM GlcN6P; higher = faster cleavage; RNA array
Method in brief: as §1

glucosamine-6-phosphate [3] = variants of: B1; assay: self-cleavage kobs at 160 uM GlcN6P; higher = faster cleavage; RNA array
Method in brief: as §1

glucosamine-6-phosphate [4] = variants of: B1; assay: self-cleavage kobs at 640 uM GlcN6P; higher = faster cleavage; RNA array
Method in brief: as §1

glucosamine-6-phosphate [5] = variants of: B1; assay: self-cleavage kobs at 2500 uM GlcN6P; higher = faster cleavage; RNA array
Method in brief: as §1

glucosamine-6-phosphate [6] = variants of: B1; assay: self-cleavage kobs at 10000 uM GlcN6P; higher = faster cleavage; RNA array
Method in brief: as §1

glucosamine-6-phosphate [7] = variants of: B1; assay: KM; higher = weaker cofactor use; RNA array
Method in brief: as §1

Variant | kcat (glucosamine-6-phosphate [1]) [s⁻¹] | self-cleavage kobs at 40 uM GlcN6P (glucosamine-6-phosphate [2]) [s⁻¹] | self-cleavage kobs at 160 uM GlcN6P (glucosamine-6-phosphate [3]) [s⁻¹] | self-cleavage kobs at 640 uM GlcN6P (glucosamine-6-phosphate [4]) [s⁻¹] | self-cleavage kobs at 2500 uM GlcN6P (glucosamine-6-phosphate [5]) [s⁻¹] | self-cleavage kobs at 10000 uM GlcN6P (glucosamine-6-phosphate [6]) [s⁻¹] | KM (glucosamine-6-phosphate [7]) [µM]
G13U A14G | 0.00536 ± 0.0022 | 0.000124 ± 2e-05 | 0.00019 ± 7.3e-05 | 0.00104 ± 0.00019 | 0.00171 ± 0.00049 | 0.00495 ± 0.00073 | –
U30C A53C | 3.34e-05 ± 6.8e-06 | – | < 1e-05 | – | 3.87e-05 ± 9.7e-06 | 2.78e-05 ± 9e-06 | –
G59C U69G | 1.85e-05 ± 5.2e-06 | < 1e-05 | – | – | – | – | –
G35U G43U | < 1e-05 | – | – | < 1e-05 | < 1e-05 | – | –
U54G G60U | < 1e-05 | – | – | – | – | – | –
G44U U54G | 0.000306 ± 2.6e-05 | – | – | 0.000127 ± 2.2e-05 | 0.000226 ± 4.8e-05 | 0.00027 ± 5.1e-05 | 986 ± 200
U30C G66A C67U | 6.3e-05 ± 4e-06 | – | – | – | 2.96e-05 ± 1.2e-05 | 4.86e-05 ± 1e-05 | 2940 ± 580
A33U A39U | 5.86e-05 ± 3e-06 | – | < 1e-05 | – | 2.03e-05 ± 6.2e-06 | 3.95e-05 ± 5.5e-06 | 4820 ± 620
G13U C34U | < 1e-05 | < 1e-05 | – | – | < 1e-05 | – | –
A12G G29U | 0.000345 ± 2.6e-05 | – | – | 5.19e-05 ± 7.9e-06 | 0.000134 ± 1.9e-05 | 0.000255 ± 4.1e-05 | 3740 ± 440
A33U U54C | 0.000118 ± 8e-06 | – | < 1e-05 | – | 5.23e-05 ± 2e-05 | 9.17e-05 ± 1.1e-05 | 2880 ± 720
G29A U56G | 0.00237 ± 0.00067 | 6.78e-05 ± 1.3e-05 | – | 0.000577 ± 9.1e-05 | 0.00129 ± 0.00021 | 0.00257 ± 0.00053 | 1720 ± 760
A14G A39U | 0.0511 ± 0.013 | 0.00167 ± 0.00051 | 0.00416 ± 0.0013 | 0.0183 ± 0.0062 | 0.0365 ± 0.014 | 0.0395 ± 0.019 | 1450 ± 480
G43U U45G | 0.00603 ± 0.00084 | 0.00013 ± 1.9e-05 | 0.000412 ± 0.00012 | 0.00124 ± 0.00027 | 0.00422 ± 0.0011 | 0.005 ± 0.00078 | 1980 ± 380
A14C G51A A53U G59U C68U | 3.12e-05 ± 1.2e-05 | – | – | – | – | – | –
G60C C68U | < 1e-05 | – | < 1e-05 | – | – | – | –
C50G C61A | 0.000122 ± 1.7e-05 | 9.57e-05 ± 9.4e-06 | 0.00018 ± 2.4e-05 | 0.000166 ± 1.7e-05 | 9.96e-05 ± 1.4e-05 | 0.000113 ± 9e-06 | –

Variant | kcat (glucosamine-6-phosphate [1]) [s⁻¹] | self-cleavage kobs at 40 uM GlcN6P (glucosamine-6-phosphate [2]) [s⁻¹] | self-cleavage kobs at 160 uM GlcN6P (glucosamine-6-phosphate [3]) [s⁻¹] | self-cleavage kobs at 640 uM GlcN6P (glucosamine-6-phosphate [4]) [s⁻¹] | self-cleavage kobs at 2500 uM GlcN6P (glucosamine-6-phosphate [5]) [s⁻¹] | self-cleavage kobs at 10000 uM GlcN6P (glucosamine-6-phosphate [6]) [s⁻¹] | KM (glucosamine-6-phosphate [7]) [µM]
U30A U65A | 0.000636 ± 0.00012 | – | 5.83e-05 ± 2e-05 | 0.000114 ± 2.4e-05 | 0.000384 ± 8.4e-05 | 0.000495 ± 8.6e-05 | 2480 ± 800
G44C U47G G66U C67G | 0.000596 ± 0.00019 | – | – | 0.000152 ± 5e-05 | 0.000668 ± 0.00032 | 0.000455 ± 0.00013 | –
C50U G66U C70G | 4.59e-05 ± 1.9e-05 | – | – | – | – | – | –
G29A A64G | 0.0066 ± 0.0018 | 0.000101 ± 2.6e-05 | 0.000242 ± 6.6e-05 | 0.000967 ± 0.00022 | 0.00217 ± 0.00041 | 0.00532 ± 0.00092 | 3900 ± 1500
A14C U69C | 0.00147 ± 0.00041 | 5.59e-05 ± 1.2e-05 | 9.64e-05 ± 1.4e-05 | 0.000344 ± 6.1e-05 | 0.000686 ± 0.00015 | 0.00131 ± 0.0002 | 2100 ± 820
A52U C67G C70G | 2.5e-05 ± 7.5e-06 | – | – | – | – | – | –
G13A C68U | 6.42e-05 ± 2.2e-06 | – | – | 5.07e-05 ± 1.2e-05 | 5.81e-05 ± 9e-06 | 6.26e-05 ± 5.5e-06 | 234 ± 85
G13A C67A C68U C70G | < 1e-05 | < 1e-05 | – | – | – | – | –
A42G U54C | 0.0476 ± 0.013 | 0.000795 ± 0.00016 | 0.00208 ± 0.001 | 0.0066 ± 0.0019 | – | 0.0394 ± 0.008 | 3020 ± 1100
G9A A42G | 1.5e-05 ± 2.2e-06 | < 1e-05 | – | – | – | – | –
G32C C70U | 0.000154 ± 1.4e-05 | – | – | 3.89e-05 ± 1.1e-05 | 6.52e-05 ± 1e-05 | 0.000121 ± 7.5e-06 | 2850 ± 800
A15G A39U | 0.0505 ± 0.019 | 0.0006 ± 7.9e-05 | 0.00146 ± 0.00026 | 0.00551 ± 0.001 | 0.0136 ± 0.0025 | 0.0387 ± 0.0051 | 4740 ± 2300
C50A U55A | 1.62e-05 ± 1.3e-06 | – | – | – | – | – | 3470 ± 790
C11A A39C | 3.87e-05 ± 5.2e-06 | – | – | – | 4.76e-05 ± 1.5e-05 | 3.53e-05 ± 7.7e-06 | –
C16U G32U U69A | 9.39e-05 ± 2e-05 | – | – | 9.19e-05 ± 1.8e-05 | – | 0.000104 ± 1.9e-05 | –
A6U | 0.000447 ± 1.4e-05 | – | 2.53e-05 ± 2.3e-06 | 8.33e-05 ± 1.6e-06 | 0.00022 ± 4e-06 | 0.000346 ± 6.3e-06 | 2740 ± 150
C8A A48G | < 1e-05 | – | < 1e-05 | – | < 1e-05 | < 1e-05 | –
